Broadly, the Kd is the concentration at which binding is half-saturated. Read a high Kd as weaker binding. Broadly, the koff is the rate constant with which the complex falls apart. Lower therefore signals a long-lived complex. As usually defined, the kon is a measure of how fast the partners come together. Lower therefore signals slow association.

Assay [1] deals with peptide of the epitope site of 102-10. Kind of assay: SPR (Biacore T200), peptide immobilised on CM5, antibody as analyte, multi cycle kinetics. In general terms: SPR reads the build-up and loss of mass on a sensor chip optically.
Assay [2] deals with T1, insoluble fibrin (fibrinogen from human plasma, immobilised on a plate and treated with thrombin) (human, UniProt P02671 36-629; P02679 27-437).
T1 construct: Plasma-derived material; also called fibrin plate; insoluble fibrin plate
T1 sequence 1: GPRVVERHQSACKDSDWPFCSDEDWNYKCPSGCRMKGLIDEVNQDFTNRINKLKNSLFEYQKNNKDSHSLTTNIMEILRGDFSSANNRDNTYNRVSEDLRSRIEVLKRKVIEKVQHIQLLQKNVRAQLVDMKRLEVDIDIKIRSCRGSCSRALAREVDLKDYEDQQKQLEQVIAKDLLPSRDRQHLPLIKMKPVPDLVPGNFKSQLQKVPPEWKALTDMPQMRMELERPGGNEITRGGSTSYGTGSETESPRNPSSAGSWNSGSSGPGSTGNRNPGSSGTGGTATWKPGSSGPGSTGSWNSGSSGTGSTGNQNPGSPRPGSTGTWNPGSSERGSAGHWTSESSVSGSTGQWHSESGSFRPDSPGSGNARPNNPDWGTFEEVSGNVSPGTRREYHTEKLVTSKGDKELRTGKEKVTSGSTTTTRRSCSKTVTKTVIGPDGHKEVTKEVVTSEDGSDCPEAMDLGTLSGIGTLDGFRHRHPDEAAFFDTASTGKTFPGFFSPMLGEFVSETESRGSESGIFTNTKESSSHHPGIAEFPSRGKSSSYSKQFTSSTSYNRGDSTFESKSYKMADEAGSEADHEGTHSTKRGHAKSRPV
T1 sequence 2: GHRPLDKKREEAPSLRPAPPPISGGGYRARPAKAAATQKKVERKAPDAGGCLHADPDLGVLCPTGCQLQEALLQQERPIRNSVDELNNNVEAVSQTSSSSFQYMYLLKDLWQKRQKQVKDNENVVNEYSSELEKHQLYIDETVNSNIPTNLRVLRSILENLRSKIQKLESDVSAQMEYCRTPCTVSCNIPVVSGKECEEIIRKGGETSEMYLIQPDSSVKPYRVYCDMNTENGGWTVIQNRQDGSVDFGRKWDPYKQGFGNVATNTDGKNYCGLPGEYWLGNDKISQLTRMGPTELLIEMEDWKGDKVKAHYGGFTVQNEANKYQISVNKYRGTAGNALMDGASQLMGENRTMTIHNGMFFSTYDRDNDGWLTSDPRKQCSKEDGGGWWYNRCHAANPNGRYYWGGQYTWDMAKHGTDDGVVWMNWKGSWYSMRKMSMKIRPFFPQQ
T1 sequence 3: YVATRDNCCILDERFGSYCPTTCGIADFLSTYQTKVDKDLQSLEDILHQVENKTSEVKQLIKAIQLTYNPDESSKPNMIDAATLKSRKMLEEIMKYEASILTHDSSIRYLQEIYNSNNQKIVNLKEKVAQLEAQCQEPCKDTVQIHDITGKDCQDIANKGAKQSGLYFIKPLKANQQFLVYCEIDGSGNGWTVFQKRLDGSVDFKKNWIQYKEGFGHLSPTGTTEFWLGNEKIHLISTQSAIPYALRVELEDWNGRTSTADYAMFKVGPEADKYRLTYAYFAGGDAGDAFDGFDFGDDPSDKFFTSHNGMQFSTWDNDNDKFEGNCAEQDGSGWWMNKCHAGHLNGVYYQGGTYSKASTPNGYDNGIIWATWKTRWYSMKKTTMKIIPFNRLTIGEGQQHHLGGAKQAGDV
Kind of assay: ELISA on the human fibrin plate (coated fibrinogen treated with thrombin), HRP secondary antibody, absorbance at 450 nm.
Procedure: In advance of the ELISA, an antigen-immobilized plate was prepared. Fibrinogen from human plasma (SIGMA) was dissolved in TBS (pH 8.5) to produce a 20 μg/mL fibrinogen solution. The solution was added to a 96-well immunoplate at 50 μL/well and was left to stand at 4° C. overnight to prepare a fibrinogen plate. Thrombin diluted to 0.05 NIH U/mL with a thrombin diluent [7 mM L-cysteine (FUJIFILM Wako Pure Chemical Corporation), 1 mM CaCl₂ (FUJIFILM Wako Pure Chemical Corporation), TBS (pH 8.5)] was added to the fibrinogen plate at 100 μL/well and was incubated at 37° C. for 2 hours to prepare a fibrin plate. The plate on which each antigen was immobilized was washed with 200 μL of PBS-T (PBS, 0.5% (v/v) Tween 20) three times, and 200 μL of a blocking solution [PBS-T, 1% (w/v) BSA] were added to each well, followed by being left to stand at room temperature for 1 hour for blocking. The samples serially diluted with PBS were added to the plate at 50 μL/well and were left to stand at room temperature for 1 hour. The solutions were discarded, and the plate was washed with PBS-T three times. A secondary antibody diluted to 0.3 μg/mL with the blocking solution was added to the plate at 50 μL/well, followed by being left to stand at room temperature for 30 minutes. […]

B1: antibody obtained from clone 99-5 (antibody, V domains shown)
VH: QIQLVQSGPELKKPGETVKISCKASGYTFTNYGMNWVKQAPGKGLKWMGWINTKIGEPTYAEEFKGRFAFSLETSASTAYLQINNLKNEDTATYFCARLLDYWGQGTTLTVSSAKTTPPSV
VL: GDIVLTQSPASLAVSLGQRATISCRASESVDSYGNSFMHWYQQKPGQPPKLLIYRASNLESGIPARFSGSGSRTDFTLTINPVEADDVATYYCQQSNEDPRTFGGGTKLEIKRADAAPTVS
With B1, in assay [1], the Kd is 32.6 nM, the koff was 0.000585 s⁻¹ and the kon came to 18000 M⁻¹ s⁻¹.

B2: antibody obtained from clone 1101 (antibody, V domains shown)
VH: EVQLQQSGTVLARPGASVKMSCKASGFSFTSYWMHWVKQRPGQGLEWIGAIYPGNSDTRNNQKFKGKAKLTAVTSANTAYMELSSLTNEDSAVYYCTRKAHYGNYGFAYWGQGTLVTVSA
VL: DIQMTQSSSYLSVSLGGRVTITCKASDHINNWLAWYQQKPGNAPRLLISGATSLETGVPSRFSGSGSGKDYTLSITSLQTEDVATYYCQQYWSTPLTFGAGTKLELKR
notes: also called antibody 1101
B2: the binding result in assay [2] is “binds”.

B3: antibody obtained from clone 1101 (antibody, V domains shown)
VH: EVQLQQSGTVLARPGASVKMSCKASGFSFTSYWMHWVKQRPGQGLEWIGAIYPGNSDTRNNQKFKGKAKLTAVTSANTAYMELSSLTNEDSAVYYCTRKAHYGNYGFAYWGQGTLVTVSAA
VL: DIQMTQSSSYLSVSLGGRVTITCKASDHINNWLAWYQQKPGNAPRLLISGATSLETGVPSRFSGSGSGKDYTLSITSLQTEDVATYYCQQYWSTPLTFGAGTKLELKRADAAP
In assay [1], B3 showed a dissociation constant (Kd) of 66.8 nM, a koff of 0.00325 s⁻¹ and a kon of 93700 M⁻¹ s⁻¹.

B4: antibody obtained from clone 99-5 (antibody, V domains shown)
VH: QIQLVQSGPELKKPGETVKISCKASGYTFTNYGMNWVKQAPGKGLKWMGWINTKIGEPTYAEEFKGRFAFSLETSASTAYLQINNLKNEDTATYFCARLLDYWGQGTTLTVSS
VL: DIVLTQSPASLAVSLGQRATISCRASESVDSYGNSFMHWYQQKPGQPPKLLIYRASNLESGIPARFSGSGSRTDFTLTINPVEADDVATYYCQQSNEDPRTFGGGTKLEIKR
notes: also called antibody 99
Regarding B4, in assay [2], the binding result was “binds”.

These data come from patent US20200147231A1 (NATIONAL CANCER CENTER JAPAN, published 2020).
